Source: patent publication US20090075291A1, “PEPTIDE-BASED REGULATION OF GAP JUNCTIONS” (The Research Foundation of State University of New York, priority 2006, published 2009)

Columns and labels:
Cx43CT [1] = target: T1, Cx43CT (Rattus norvegicus, UniProt P08050); assay: Surface Plasmon Resonance (SPR) binding of synthetic peptides to immobilised recombinant Cx43CT; settings: for SPR binding to Cx43CT (in words): Cx43CT bound to carboxymethyl dextran matrix
T1 construct: GST (N, cleaved yes); made in house; host or cells: E. coli BL-21
T1 sequence (P08050 255-382): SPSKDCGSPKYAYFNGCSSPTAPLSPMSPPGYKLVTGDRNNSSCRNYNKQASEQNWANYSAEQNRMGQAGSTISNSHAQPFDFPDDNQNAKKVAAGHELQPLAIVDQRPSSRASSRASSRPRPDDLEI
Source text: Recombinant Cx43CT was produced as described in Duffy et al., “pH-Dependent Intramolecular Binding and Structure Involving Cx43 Cytoplasmic Domains,” J. Biol. Chem. 277(39):36706-36714 (2002), which is hereby incorporated by reference in its entirety. Briefly, cDNA derived from rat Cx43 was inserted into pGEX-6P-2 (Amersham) and expressed in E. coli (BL-21). The resultant GST-fusion protein was cleaved from the GST PreScission Protease® (Amersham Biosciences). The recombinant product after cleavage contained the sequence 255-382 of rCx43 preceded by four additional amino acids (GPLG). Protein concentration was measured using the Bio-Rad DC Protein Assay. Protein purity was assessed by SDS-PAGE.
Recombinant Cx43CT was covalently bound to a carboxylmethyl dextran matrix (Salamon et al., “Surface Plasmon Resonance Spectroscopy as a Tool for Investigating the Biochemical and Biophysical Properties of Membrane Protein Systems. II: Applications to Biological Systems,” Biochim. Biophys. Acta 1331(2):131-152 (1997), which is hereby incorporated by reference in its entirety). Specific peptides were presented and, when feasible, dissociation constants (KD) were calculated from the time course of binding and unbinding of the ligand, using a 1:1 (Langmuir) association and dissociation kinetic model (Biacore software package). In both phases (association and dissociation), the first 5-8 seconds of recording were not included in the fit, to avoid artifacts resulting from peptide distribution within the flow cells (Lang et al., “Surface Plasmon Resonance as a Method to Study the Kinetics and Amplitude of Protein-protein Binding,” in PRACTICAL METHODS IN CARDIOVASCULAR RESEARCH 936-947 (Stefan Dhein, Friedrich Wilhelm Mohr & Mario Delmar eds., 2005), which is hereby incorporated by reference in its entirety).
Phage display allows for the rapid screening of thousands of peptides, but the characteristics of binding cannot be properly defined. Furthermore, the peptides are part of a capsid protein, which may affect the ability of the peptide to properly interact with the target protein. Therefore, some of the peptides identified by the phage screening were selected to, using SPR, further characterize their ability to bind Cx43CT. Recombinant Cx43CT was covalently bound to a carboxymethyl dextran matrix and synthetic peptides presented for binding. A total of six 12-mer peptides from the non-biased screening (peptides labeled RXP1 to RXP6 in Table 1) and 5 peptides from the biased screening (labeled RXP-A to RXP-E in Table 3) were tested. […] Peptide RXP4 (SEQ ID NO:15) caused the largest deflection in SPR signal. RXP4 (250 μM) was added at time “zero.” Washout was initiated after two minutes of exposure. […] Higher concentrations of the peptide were tested but an asymptotic maximum response could not be detected. In addition, dissociation rates were too fast to reliably use them to calculate the kinetics of binding.
A different result emerged from the testing of the doublets. […] The transitions were well-fit by exponential functions and the rates of association and dissociation were used as described in Example 4 to estimate the kinetic parameters. A full range of concentrations was tested in three separate occasions and at two different pHs of the solvent (6.5 and 7.4). […] Adhes. 8(4-6):219-223 (2001), which is hereby incorporated by reference in its entirety), and that measured for the binding of Aquaporin-0 to Cx45.6 (Yin et al., “The Development-associated Cleavage of Lens Connexin 45.6 by Caspase-3-like Protease is Regulated by Casein Kinase II-mediated Phosphorylation,” J. Biol. Chem. 276(37):34567-34572 (2001), which is hereby incorporated by reference in its entirety).
The peptides were tested for binding to the carboxyl terminal domain of Cx43 using Surface Plasmon Resonance (“SPR”). […]

Cx43CT [2] = target: T1, Cx43CT; assay: Biased (XXXXRXPXXXX) phage display screening against Cx43CT; format: binding; settings: for Total Frequency (%): all three runs, 402 inserts sequenced; for Frequency Run 2(%) / Frequency Run 1 (%): binding step at pH 6.5; for Frequency Run 2(%): 119 inserts sequenced; for Frequency Run 1 (%): 120 inserts sequenced; for Frequency Run 3 (%): binding step at pH 7.4, 163 inserts sequenced
Description: A “library” of bacteriophage, displaying ˜[…] of 2.7×10^9 random 12-mer peptides (Ph.D.-12™ Phage display peptide library kit; New England BioLabs Inc.) was utilized. Wells in 24-well plates were coated with 15 μg of recombinant CT and blocked with 5 mg/ml BSA. After removing the unbound viruses by washing with Tris buffered saline containing 0.5% tween-20 (TBS-T), low affinity binders were eluted with a solution of TBS-containing Cx43CT at a concentration of 100 μg/ml. High affinity binders were recovered by overlaying the well with a culture of E. coli, to allow the tightly bound phage to infect the bacteria. This culture was amplified and the virus was precipitated with PEG. The amplified product was used for the subsequent round of panning. All steps were conducted at pH 6.5 unless otherwise indicated.
After three rounds of selection and amplification, the phage recovered from the last round of binding were grown on a lawn of E. coli for plaque purification. Each plaque, representing a single clone, was picked and amplified. The phage were isolated and analyzed by DNA sequencing.
The Ph.D. Peptide Display Cloning System (New England BioLabs Inc.) was used to create a biased phage display library of sequence XXXXRXPXXXX, where X is any amino acid flanking an arginine and a proline with an additional random residue at the center. The randomized peptides were followed by a Gly-Gly-Gly-Ser (SEQ ID NO:2) spacer. The library was cloned into M13 phage. These phage were analyzed for titer and sequence prior to screening for Cx43CT binding as described above.
The RXP motif was not detected in phage that bound to streptavidin. The motif occurred in different positions within the 12-mer peptide, thus preventing proper alignments to determine the frequency of other amino acids at specific positions relative to the RXP. To overcome this limitation and to search for peptides with higher binding affinity (see Example 10), a biased phage display library was generated where the RXP motif was forced to the center of the sequence, flanked at each side by 4 randomized amino acids. Sixty clones containing an insert (out of an estimated 3-4×10^4 total clones in the library) were chosen at random for sequencing prior to exposure of the library to Cx43CT. All inserts coded for an 11-mer peptide with the RXP motif in the appropriate location. In three independent runs, the same library was presented to Cx43CT. The binding step was carried out at pH 6.5 in two of the runs (run 1 and 2) and at pH 7.4 in one additional run (run 3). The total number of phage plaques containing a full coding insert that were recovered after the binding step were 120, 119 and 163 for runs 1, 2 and 3, respectively. […] These inserts may be consequent to incomplete restriction enzyme digestion as well as possible residual activity of the Klenow polymerase used in second strand production. The combination of these two factors would result in blunt ends that subsequently ligated. […] Furthermore, five specific peptides were recovered from all three runs and represented a large fraction of the repeats observed within the same run (see Table 2).

Cx43CT [3] = target: T1, Cx43CT; assay: NMR 15N-HSQC resonance shifts of 15N-Cx43CT in presence of peptide; format: binding; settings: PBS pH 5.8, peptide to Cx43CT about 2.4 mM to 0.8 mM (3:1)
Description: All NMR data were acquired on a Varian INOVA 600-MHz NMR spectrometer using a cryoprobe (MacUra & Ernst, “Elucidation of Cross Relaxation in Liquids by Two-dimensional NMR Spectroscopy,” Mol. Phys. 41:95-117 (1980), which is hereby incorporated by reference in its entirety); the sample temperature was maintained at 7° C. Gradient-enhanced two-dimensional ^1H-^15N HSQC experiments (Kay et al., “Pure Absorption Gradient Enhanced Heteronuclear Single Quantum Correlation Spectroscopy with Improved Sensitivity,” J. Am. Chem. Soc. 114:10663-10665 (1992), which is hereby incorporated by reference in its entirety) were used to observe all backbone amide resonances in ^15N-labeled Cx43CT. Data were acquired with 1024 complex points in t2 and 128 complex points in t1. Sweep widths were 10,000 Hz in the proton dimension and 2,500 Hz in the nitrogen dimension. The concentration of RXP peptide to Cx43CT was approximately 2.4 mM to 0.8 mM, respectively (3:1 ratio). All NMR data were processed using NMRPipe (Delaglio et al., “NMRPipe: A Multidimensional Spectral Processing System Based on UNIX Pipes,” J. Biomol. NMR 6(3):277-293 (1995), which is hereby incorporated by reference in its entirety) and analyzed using NMRView (Sorgen, “How to Solve a Protein Structure by Nuclear Magnetic Resonance The Connexin43 Carboxyl Terminal Domain,” in PRACTICAL METHODS IN CARDIOVASCULAR RESEARCH 948-958 (Stefan Dhein, Friedrich Wilhelm Mohr & Mario Delmar eds., 2005), which is hereby incorporated by reference in its entirety).
Peptides RXP1, RXP4 and RXP-E were tested for their ability to modify the structure of Cx43CT. The peptides were diluted in PBS (pH 5.8) containing ^15N-Cx43CT, and ^15N-HSQC spectra were acquired. Results for RXP4 and RXP-E are shown in FIGS. 4A (RXP4) and 4B (RXP-E). The specific resonance peaks that correspond to each amino acid in the Cx43CT sequence have been assigned (Sorgen et al., “Sequence-specific Resonance Assignment of the Carboxyl Terminal Domain of Connexin43,” J. Biomol. NMR 23(3):245-246 (2002), which is hereby incorporated by reference in its entirety). […]

Row | Response (SPR amplitude) (Cx43CT [1]; peptide concentration 1.0 mM) [arbitrary units] | Total Frequency (%) (Cx43CT [2]) | Frequency Run 2(%) (Cx43CT [2]) | Frequency Run 1 (%) (Cx43CT [2]) | Frequency Run 3 (%) (Cx43CT [2]) | Substance | other results
1 | 4.6 | – | – | – | – | AcRNP-NH2 (Ac-Arg-Asn-Pro-NH2) [Peptide 2502, small RXP peptide] | –
2 | 46.5 | – | – | – | – | AcRRKP-NH2 (Ac-RRKP-NH2) [Peptide 2504] | –
3 | 294.7 | – | – | – | – | AcRRKPRRKP-NH2 (Ac-RRKPRRKP-NH2) [Peptide 2503] | Response (SPR amplitude) (Cx43CT [1]; peptide concentration 25 μM): 27.5 arbitrary units; Response (SPR amplitude) (Cx43CT [1]; peptide concentration 100 μM): 80.6 arbitrary units; Response (SPR amplitude) (Cx43CT [1]; peptide concentration 250 μM): 147.0 arbitrary units; Response (SPR amplitude) (Cx43CT [1]; peptide concentration 500 μM): 214.8 arbitrary units
4 | – | 8.2 | 2.5 | 6.7 | 13.5 | EIQPRSPLMFSGGGSAHARVPFYSHSAKEARWPRAHR (RXP-containing peptide) [RXP-B] | –
5 | – | – | – | – | – | R R P P Y R V P R K L F (RRPPYRVPPKLF) [RXP4] | SPR binding to Cx43CT (in words) (Cx43CT [1]): too weak to allow for proper calculation of kinetic values; SPR binding to Cx43CT (in words) (Cx43CT [1]; listed as RXP-4): weak intermolecular binding; Shift of Cx43CT resonance peaks (15N-HSQC) (Cx43CT [3]): strongly affected the resonance peaks of residues R376, D378, and D379; Shift of Cx43CT resonance peaks (15N-HSQC) (Cx43CT [3]; listed as RXP-4): caused a shift in the position of residues 376, 378 and 379, as well as residues 343-346
6 | – | 40 | 64.7 | 20.8 | 36.2 | DVPGRDPGYIKGGGSAHARVPFYSHSLNRNRKPSLYQ (RXP-containing peptide) [RXP-A] | –
7 | – | 6 | 0.8 | 16.7 | 1.8 | WEEPRRPFTMSGGGSAETHARVPFYSHSPMRHRLPGVHL (RXP-containing peptide) [RXP-D] | –
8 | – | 15.2 | 11.8 | 12.5 | 19.6 | GIAAREPNSHDGGGSAHARVPFYSHSRDLWRKPAKSL (RXP-containing peptide) | –
9 | 24.8 | – | – | – | – | AcRNPRNP-NH2 (Ac-RNPRNP-NH2) [Peptide 2501] | Response (SPR amplitude) (Cx43CT [1]; peptide concentration 500 μM): 14.4 arbitrary units
10 | – | – | – | – | – | G H L H L R V P T L K M (GHLHLRVPTLKM; RXP-containing peptide) [RXP1] | SPR binding to Cx43CT (in words) (Cx43CT [1]): detectable, pH-dependent binding; SPR binding to Cx43CT (in words) (Cx43CT [1]; listed as RXP-1): very weak (almost undetectable) interaction; Shift of Cx43CT resonance peaks (15N-HSQC) (Cx43CT [3]): no resonance shifts were observed
11 | 34.9 | – | – | – | – | AcRRNP-NH2 (Ac-RRNP-NH2) [Peptide 2505] | –
